For this experiment, the target named is human DR5 (human) (UniProt O14763). Put plainly: ELISA, half-log dilutions on wells coated with 1 microgram/ml human DR5, anti-mouse polyclonal antibody-HRP.
Sequence of human DR5 (human) (O14763 other isoform, or with tags, fused parts or gaps limits assumed): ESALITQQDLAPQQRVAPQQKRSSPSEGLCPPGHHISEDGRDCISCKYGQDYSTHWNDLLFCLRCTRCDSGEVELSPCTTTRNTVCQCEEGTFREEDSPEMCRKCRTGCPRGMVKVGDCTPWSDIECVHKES

MAB631 (antibody) gave an EC50 of 0.0651 nM.

Source of the values: patent publication US20150004162A1.
